Holding throughout (assay): EMSA
Background: A gel shift assay detects complexes by their altered migration in electrophoresis.

In data set [1] the target is T1, His6-Glis3(ZFD) (mouse, UniProt Q6XP49 345-496).
T1 sequence: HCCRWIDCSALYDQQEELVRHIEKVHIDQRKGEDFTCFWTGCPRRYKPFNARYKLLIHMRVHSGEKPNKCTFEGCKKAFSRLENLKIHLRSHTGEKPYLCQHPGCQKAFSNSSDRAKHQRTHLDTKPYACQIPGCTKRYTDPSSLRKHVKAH

Data set [2] addresses T2, His6-Glis3(ZFD)1m (mouse, UniProt Q6XP49 345-496, C347A).
T2 sequence: T1 sequence with C3A

The target of data set [3] is T3, His6-Glis3(ZFD)2m (mouse, UniProt Q6XP49 345-496, C381A).
T3 sequence: T1 sequence with C37A

The target in data set [4] is T4, His6-Glis3(ZFD)5m (mouse, UniProt Q6XP49 345-496, C474A).
T4 sequence: T1 sequence with C130A

Data set [5] has as its target T5, His6-Glis3(ZFD)4m (mouse, UniProt Q6XP49 345-496, C444A).
T5 sequence: T1 sequence with C100A

For data set [6], the target named is T6, His6-Glis3(ZFD)3m (mouse, UniProt Q6XP49 345-496, C414A).
T6 sequence: T1 sequence with C70A

Substitutions are numbered along the chain they refer to.

B1: Glis-BS consensus (dsDNA)
DNA 1: CGTGGGGGGTC
DNA 2: GACCCCCCACG
As a reminder, the Kd is the constant that tells how readily two partners part at equilibrium. Lower therefore signals a tighter complex. B1: the Kd in data set [1] is 3.69 ± 0.26 nM. Also, the binding result in data set [2], in data set [3], in data set [4], in data set [5] and in data set [6] was “no binding” in each case.

The values are drawn from PMC2275160.
